In paper PMC4405178 (Biochemistry, 2015):

Legend:
[1] = biological target: Ste2p R58L, S95Y (Saccharomyces cerevisiae) (UniProt D6VTK4); test: flow cytometry on cells
[2] = biological target: Ste2p R58Q, S95Y (Saccharomyces cerevisiae) (UniProt D6VTK4); test: flow cytometry on cells
Sequence of Ste2p R58Q, S95Y (Saccharomyces cerevisiae) (D6VTK4 1-303 R58Q/S95Y): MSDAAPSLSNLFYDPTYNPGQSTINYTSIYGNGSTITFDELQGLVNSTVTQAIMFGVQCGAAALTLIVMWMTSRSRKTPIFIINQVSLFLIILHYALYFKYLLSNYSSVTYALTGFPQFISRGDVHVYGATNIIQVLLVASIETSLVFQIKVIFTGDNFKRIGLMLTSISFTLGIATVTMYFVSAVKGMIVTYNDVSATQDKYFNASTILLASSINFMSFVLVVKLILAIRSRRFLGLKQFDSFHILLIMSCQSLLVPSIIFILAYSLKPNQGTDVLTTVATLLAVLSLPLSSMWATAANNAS

Sequence of Ste2p R58L, S95Y (Saccharomyces cerevisiae) (D6VTK4 1-303 R58L/S95Y): as the sequence (D6VTK4 1-303 R58Q/S95Y) above, with Q58L counted along it

ligand binding at 300 nM ligand, % of wild-type levels (% of wild-type levels) [1]: 13.7
ligand binding at 300 nM ligand, % of wild-type levels (% of wild-type levels) [2]: 16.8
Substance: [K^7(NBD),Nle^12] α-factor (peptide)
